Source: publication PMC3057836 (The Journal of Biological Chemistry, 2010)

B1: cytoplasmic fragment of SpoIISA (CSpoIISA) as found in the crystal of the CSpoIISA·SpoIISB complex (domain or fragment)
chain: GSELETDTREILEENNEMLHMYLNRLKTYQYLLKNEPIHVYYGSIDAYAEGIDKLLKTYADKMNLTASLCHYSTQADKDRLTEHMDDPADVQTRLDRKDVYYDQYGKVVLIPFTIETQNYVIKLTSDSIVTEFDYLLFTSLTSIYDLVLPIEEEGEG
modifications: selenomethionine-substituted
B2: CSpoIISA (His6 tag-free cytosolic domain of SpoIISA) (domain or fragment)
chain: FIFLSAYVKKLAGSELETDTREILEENNEMLHMYLNRLKTYQYLLKNEPIHVYYGSIDAYAEGIDKLLKTYADKMNLTASLCHYSTQADKDRLTEHMDDPADVQTRLDRKDVYYDQYGKVVLIPFTIETQNYVIKLTSDSIVTEFDYLLFTSLTSIYDLVLPIEEEGEG

How the values were obtained:
[1] = molecular target: the molecule itself; assay: crystal structure
[2] = molecular target: the molecule itself; assay: SEC

Row | Protein | stoichiometry N [1] | stoichiometry N [2]
1 | B1 | 2 | 
2 | B2 |  | 2
